18 molecules from patent US20240270826A1 (NATIONAL RESEARCH COUNCIL OF CANADA, published 2024) can be followed below.

The target in experiment [1] is SARS-CoV-2 spike protein S on live virus, Wuhan (strain SARS-CoV-2/Canada/VIDO-01/2020) (SARS-CoV-2 (Wuhan), UniProt P0DTC2 14-1273). Briefly: cell-based or functional assay.
In experiment [2] the target is Human SARS-CoV-2_Wuhan S (SmT1) (SARS-CoV-2 (Wuhan), UniProt P0DTC2 14-1208). Briefly: flow cytometry SVNA, VHH-Fc vs biotin-S binding to Vero E6 ACE2. (In general: In flow cytometry, cells or beads pass a laser one at a time.)
The target is the same in experiment [3]. The experiment is described as follows: flow cytometry SVNA: VHH-Fc inhibits S binding to ACE2 on Vero E6 cells.
In experiment [4] the target is T1, SARS-CoV-2 S1 (aa16-685) (Wuhan) (SARS-CoV-2 Wuhan, UniProt P0DTC2 16-685).
T1 construct: NRC; FLAG, 6xHis tags
Briefly: SPR, antigen on chip. In general terms: Surface plasmon resonance follows binding to a sensor surface in real time, without labels.

Experiment [5] has as its target T2, SARS-CoV-2 spike trimer S (Wuhan, SmT1) (SARS-CoV-2 Wuhan).
T2 construct: extracellular domain
The experiment is described as follows: SPR, antigen on chip.

In experiment [6] the target is T3, SARS-CoV-2 S2 (aa686-1208) (Wuhan) (SARS-CoV-2 Wuhan, UniProt P0DTC2 686-1208).
T3 construct: NRC; FLAG, 6xHis tags
The experiment is described as follows: SPR, antigen on chip.

B1: NRCoV2-15 VHH-Fc (Fc fusion)
chain: EVQLVSSGGGLVEAGGSLRLSCIASGSTSGRNTMGWFRQAPGKQREWVAIVSTSGATNYAGSVKGRFTLSRDNAKNAVYLQMNNLKPEDTAVYYCYAAYGGGGDYWGQGTQVTVSS
notes: bivalent VHH-Fc
For B1, the “LVNA IC50” value in experiment [1] came to 0.73 nM. In experiment [2], this molecule showed an IC50 of 8.1 nM, an IC99 of 71.5 nM and an Imax % of 95%.

B2: NRCoV2-15 VHH-Fc (Fc fusion)
chain: EVQLVSSGGGLVEAGGSLRLSCIASGSTSGRNTMGWFRQAPGKQREWVAIVSTSGATNYAGSVKGRFTLSRDNAKNAVYLQMNNLKPEDTAVYYCYAAYGGGGDYWGQGTQVTVSS
notes: bivalent VHH-Fc
The molecule B2 displayed a half-inhibitory concentration (IC50) in experiment [3] of 5.8 nM.

B3: NRCoV2-SR13 VHH-Fc (Fc fusion)
chain: EVQLVESGGGLVTTGGSLRLSCATSGSRFGSKHMAWYRQAPGKQRDLVAAISSGGSTHYGSSVKGRFTISRDNAKSTVYLQMNSLNPEDTAVFYCNMGGWDYRSNTYIPGSRSDYWGQGTQVTVSS
notes: bivalent VHH-Fc
As to B3, the “LVNA IC50” value in experiment [1] is ~100 nM. In experiment [2], this molecule registered an IC50 of 23.8 nM, a concentration for an effect of 99% (IC99) of 1970 nM and an Imax % of 82%.

B4: NRCoV2-10 VHH-Fc (Fc fusion)
chain: QLQLQESGGGLVQPGGSLTLSCAASGNTFSRSNMHWYRQAPGAQREWVAAISSRGISTYAYSAKGRFTISRDNAKNTVSLQMNSLKPEDTAVYYCYAADDLGDYWGQGTQVTVSS
notes: bivalent VHH-Fc
For B4, the “LVNA IC50” value in experiment [1] is 1.28 nM. Besides, in experiment [2], the 50% inhibitory concentration (IC50) stood at 7.7 nM, the IC99 was 77.3 nM and the Imax % worked out at 91%.

B5: NRCoV2-10 VHH-Fc (Fc fusion)
chain: QLQLQESGGGLVQPGGSLTLSCAASGNTFSRSNMHWYRQAPGAQREWVAAISSRGISTYAYSAKGRFTISRDNAKNTVSLQMNSLKPEDTAVYYCYAADDLGDYWGQGTQVTVSS
notes: bivalent VHH-Fc
B5 had an IC50 in experiment [3] of 8.8 nM.

B6: NRCoV2-MRed03 VHH (VHH)
VHH: EVQLVESGGGLVQPGGSLRLSCAAIGFTLDYYAIGWFRQAPGKEREGVSCISSSDGSTYYADSVKGRFTISRDNAKNTVYLQMNSLKPEDTAVYYCATDAFATCDSWYAQIAQYDFRGQGTQVTVSS
In experiment [4], B6 came in with a Kd of 0.223 nM, an off-rate (koff) of 6.15e-05 s⁻¹ and an on-rate constant (kon) of 276000 M⁻¹ s⁻¹. For the same molecule, in experiment [5], the Kd stood at 0.52 nM, the off-rate (koff) was determined as 8.14e-05 s⁻¹ and the kon was found to be 157000 M⁻¹ s⁻¹. Also, the binding result in experiment [6] is on record as “no binding”.

B7: NRCoV2-14 VHH-Fc (Fc fusion)
chain: EVQLVSSGGGLVQAGGSLRLSCEASGTTFSHYAVGWYRQAPGKQREWVASISVFGSTTYGGSVAGRFTISRDNDKNTVDLQMNSLKPEDTAVYYCHAVNADIGGDYWGQGTQVTVSS
notes: bivalent VHH-Fc
B7: the IC50 in experiment [3] amounted to 7.5 nM.

B8: NRCoV2-05 VHH-Fc (Fc fusion)
chain: EVKLVQSGGGLVQPGGSLRLSCAASGFIFSNYAMNWVRQAPGKGLEWVSGINSGGGDTRYADSVKGRFTVSRDNAKNTLYLQMNSLKPEDTGVYYCSKGPVSSYYGSGYDYRGQGTQVTVSS
notes: bivalent VHH-Fc
B8 returned a 50% inhibitory concentration (IC50) in experiment [3] of 4.9 nM.

B9: NRCoV2-04 VHH-Fc (Fc fusion)
chain: AVQLVDSGGGLVQPGGSLRLSCAASGSPFSNVVMAWYRQAPGKQRERVAFISGGGIADYIMSVKGRFTISRDNAKNTVYLQMNSLKPEDTAVYYCWSSYESTWGQGTQVTVSS
notes: bivalent VHH-Fc
For the molecule B9, the half-inhibitory concentration (IC50) in experiment [3] was 10.8 nM.

B10: NRCoV2-02 VHH-Fc (Fc fusion)
chain: EVQLVESGGGLVQAGGSLRLSCAASGFTFSNYAMNWVRQAPGKGLEWVSGISGRGDDTRYADSVKGRFTISRDNAKNTLFLQMRSLRPEDTGVYRCTKGPDLYYFGSGYSDRGQGTQVTVSS
notes: bivalent VHH-Fc
As to B10, the concentration for half-maximal inhibition (IC50) in experiment [3] is 4.7 nM.

B11: NRCoV2-MRed05 VHH-Fc (Fc fusion)
chain: EVQLVESGGGLVQPGGSLRLSCAASGFTLDYYAIGWFRQAPGKEREGVSCISSSDGSTLYADSVKGRFTISRDNAKNTVYLQMNSLKPEDTAVYYCATGPQAYYSGSYYFQCPQAGMDYWGKGTQVTVSS
notes: bivalent VHH-Fc
For the molecule B11, the “LVNA IC50” value in experiment [1] stood at 0.17 nM. In experiment [2], this molecule showed a concentration for half-maximal inhibition (IC50) of 6.1 nM, an IC99 of 36.3 nM and an Imax % of 95%.

B12: NRCoV2-MRed05 VHH-Fc (Fc fusion)
chain: EVQLVESGGGLVQPGGSLRLSCAASGFTLDYYAIGWFRQAPGKEREGVSCISSSDGSTLYADSVKGRFTISRDNAKNTVYLQMNSLKPEDTAVYYCATGPQAYYSGSYYFQCPQAGMDYWGKGTQVTVSS
notes: bivalent VHH-Fc
For the molecule B12, the IC50 in experiment [3] came to 4.3 nM.

B13: NRCoV2-MRed07 VHH (VHH)
VHH: EVQLVESGGGLVQPGGSLTLSCAASGSIGPFNTMGWYRQAPGNQREPAAIITRGGVTNYADSVKGRFTISRDNAKNAVYLQMDSLKPDDTAVYYCYANYGWAIPYWGNGTQVTVSS
As for B13, in experiment [4], binding was put at a Kd of 0.378 nM, the koff turned out to be 0.000427 s⁻¹ and the kon worked out at 1.13e+06 M⁻¹ s⁻¹. In experiment [5], this molecule gave a Kd of 0.236 nM, a dissociation rate constant (koff) of 0.000378 s⁻¹ and a kon of 1.6e+06 M⁻¹ s⁻¹. In addition, the binding result in experiment [6] is on record as “no binding”.

B14: NRCoV2-SR02 VHH-Fc (Fc fusion)
chain: EVQLVDSGGGLVQAGGSLRLSCTASEFTLNYYSIGWFRQSPGKEREGVSCIRYSGGGIDYADSVKGRFTISRDNAKNTVYLTMNSLKPEDTAVYYCAADRLYSRACPTAGGRNYWGQGTQVTVSS
notes: bivalent VHH-Fc
In turn, B14 showed an IC50 in experiment [3] of 1.7 nM.

B15: NRCoV2-1d VHH-Fc (Fc fusion)
chain: EVQLVESGGGSVQPGGSLRLSCAASGSTLDYYAIGWFRQAPGKEREWVSSVSSSDGNTLYADSVKGRFTISRDNAKNTVYLQMNSLKAEDTAVYVCAADYSMRPFAVGRWHRDYEYWGQGTQVTVSS
notes: bivalent VHH-Fc
The molecule B15 showed a concentration for half-maximal inhibition (IC50) in experiment [3] of 4.7 nM.

B16: NRCoV2-MRed06 VHH (VHH)
VHH: EVQLVESGGGLVQAGGSLRLSCAASGFTLAYYAIGWFRQAPGKEREGVSCISSSDGSAHYADSVKGRFTISRDNAKNTVSLQMNSLKPEDTAVYYCATDSFSSCSDYESGMDFWGKGTQVTVSS
In experiment [4], B16 had a dissociation constant Kd of 4.22 nM, a dissociation rate constant (koff) of 0.00157 s⁻¹ and an on-rate constant (kon) of 371000 M⁻¹ s⁻¹. In addition, in experiment [5], binding was put at a Kd of 4.8 nM, the koff amounted to 0.000887 s⁻¹ and the association rate constant (kon) was 185000 M⁻¹ s⁻¹. For the same molecule, the binding result in experiment [6] was “no binding”.

B17: NRCoV2-MRed11 VHH (VHH)
VHH: EVQLVESGGGLVQAGGSLRLSCAASGFTFSSYAMSWHRQAPGKGLEWVSAINSGGGSTSYADSVKGRFAISRDNAKNTLYLQMNSLKPEDTAVYYCATTISDGSSWSTKSYRGQGTQVTVSS
As to B17, the binding result in experiment [4] is given as “no binding”. Further, in experiment [5], the affinity, expressed as Kd, was 17.8 nM; the koff was 0.000418 s⁻¹; the kon came to 23400 M⁻¹ s⁻¹. In experiment [6], this molecule displayed a Kd of 5.21 nM, a koff of 0.000213 s⁻¹ and an association rate constant (kon) of 40900 M⁻¹ s⁻¹.

B18: NRCoV2-17 VHH-Fc (Fc fusion)
chain: EVQLQQSGGGLVQTGGSLRLSCAAAGSPFSQLAMSWYRQISGKERAWVASISPTGNRSYSKIAKGRFTISRDNAKNTVTLQMTSLKPEDTAAYICQAANVNGGDYWGQGTQVTVSS
notes: bivalent VHH-Fc
In experiment [3], B18 displayed an IC50 of 8.6 nM.

Usually IC50 stands for the concentration that inhibits the measured activity by half. A lower IC50 goes with greater potency in that assay. For orientation: IC99 means the concentration at which the effect reaches the 99% level. The low end stands for an effect from little substance, the high end for a need for much substance. A word on the Kd: it is the equilibrium constant for the complex coming apart. High values mean lower affinity, low ones higher affinity. The term koff denotes the rate constant with which the complex falls apart. A high value points to fast dissociation. A word on the kon: it is the second-order rate constant of association. High values mean faster complex formation, low ones slower complex formation.
